Source: JPH11332563A
pKd: −log10 of the molar value.

Target: ヒト可溶性CD4 (human soluble CD4 prepared in Example 2, C-terminal FLAG-tag, from COS7 cells) (human) (UniProt P01730)
Experiment: SPR (BIAcore 2000), antibody amine-coupled on CM5, soluble CD4 as analyte

pKd: 8.12
koff: 0.000138 s⁻¹
kon: 18200 M⁻¹ s⁻¹
Substance: 13B8.2抗体 (イムノテック社) (antibody)
